The supplement of paper PMC9112550, “Optimization of the antimicrobial peptide Bac7 by deep mutational scanning” (BMC Biology, 2022)

Test system: Escherichia coli TOP10
Assay: shrunken log2 fold change of peptide-encoding DNA abundance (4.5 h post-induction vs induction); higher = less antimicrobial activity (less host growth inhibition)
Conditions: time post-induction: 4.5 h; library: site-saturation at positions 5, 18, 19, 20
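Note: peptides expressed intracellularly from a pBAD plasmid library in pooled LB shake-flask culture, induced with 0.3% L-arabinose, DNA abundance read by NGS, three biological replicates, DESeq2 with apeglm shrinkage.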

| Sequence | shrunken log2 fold change |
| --- | --- |
| RRIRGRPPRLPRPRPRPTAIPRP | 0.974 |
| RRIRVRPPRLPRPRPRPERSPRP | 0.276 |
| RRIRKRPPRLPRPRPRPVEWPRP | 0.12 |
| RRIRERPPRLPRPRPRPNVQPRP | -0.403 |
| RRIRKRPPRLPRPRPRPDAQPRP | 1.59 |
| RRIRPRPPRLPRPRPRPCKVPRP | -0.348 |
| RRIRDRPPRLPRPRPRPVWNPRP | 0.00745 |
| RRIRQRPPRLPRPRPRPRAIPRP | 0.109 |
| RRIRWRPPRLPRPRPRPVCDPRP | 0.534 |
| RRIRMRPPRLPRPRPRPEAYPRP | 0.036 |
| RRIRCRPPRLPRPRPRPTQRPRP | 0.514 |
| RRIRTRPPRLPRPRPRPQYVPRP | -0.336 |
| RRIRVRPPRLPRPRPRPSWNPRP | -0.371 |
| RRIRARPPRLPRPRPRPFIPPRP | -0.492 |
| RRIRVRPPRLPRPRPRPRQMPRP | 0.117 |
| RRIRQRPPRLPRPRPRPCFHPRP | -0.425 |
| RRIRDRPPRLPRPRPRPQWCPRP | 0.0917 |
| RRIRPRPPRLPRPRPRPCRQPRP | 0.111 |
| RRIRHRPPRLPRPRPRPGHIPRP | -0.282 |
| RRIRLRPPRLPRPRPRPLNYPRP | -0.501 |
| RRIRIRPPRLPRPRPRPISQPRP | -0.961 |
| RRIRRRPPRLPRPRPRPVDTPRP | 0.0438 |
| RRIRVRPPRLPRPRPRPHDCPRP | -0.162 |

| Sequence | shrunken log2 fold change |
| --- | --- |
| RRIRPRPPRLPRPRPRPVTLPRP | 0.527 |
| RRIRFRPPRLPRPRPRPMQLPRP | 0.0166 |
| RRIRPRPPRLPRPRPRPTSYPRP | -0.0178 |
| RRIRKRPPRLPRPRPRPTTRPRP | 0.717 |
| RRIRIRPPRLPRPRPRPHMHPRP | -1.05 |
| RRIRTRPPRLPRPRPRPADEPRP | -0.0108 |
| RRIRWRPPRLPRPRPRPNSRPRP | 0.0524 |
| RRIRQRPPRLPRPRPRPKLEPRP | 0.563 |
| RRIRDRPPRLPRPRPRPWSSPRP | 0.0046 |
| RRIRVRPPRLPRPRPRPHGQPRP | -0.0326 |
| RRIRTRPPRLPRPRPRPQCYPRP | -0.256 |
| RRIRVRPPRLPRPRPRPYWPPRP | -0.182 |
| RRIRWRPPRLPRPRPRPILNPRP | -0.362 |
| RRIRQRPPRLPRPRPRPRQDPRP | 0.243 |
| RRIRRRPPRLPRPRPRPRICPRP | 0.414 |
| RRIRRRPPRLPRPRPRPKEIPRP | 0.205 |
| RRIRSRPPRLPRPRPRPYCKPRP | -0.327 |
| RRIRGRPPRLPRPRPRPHRFPRP | 0.101 |
| RRIRDRPPRLPRPRPRPQIGPRP | -0.00672 |
| RRIRHRPPRLPRPRPRPADPPRP | 0.0438 |
| RRIRGRPPRLPRPRPRPYYHPRP | -0.204 |
| RRIRYRPPRLPRPRPRPIDAPRP | -0.284 |
| RRIRPRPPRLPRPRPRPTDDPRP | -0.392 |

| Sequence | shrunken log2 fold change |
| --- | --- |
| RRIRQRPPRLPRPRPRPCQLPRP | -0.0105 |
| RRIRKRPPRLPRPRPRPCWVPRP | 0.259 |
| RRIRERPPRLPRPRPRPKPDPRP | 0.0317 |
| RRIRVRPPRLPRPRPRPELSPRP | 0.119 |
| RRIRSRPPRLPRPRPRPPQSPRP | 0.373 |
| RRIRNRPPRLPRPRPRPEHCPRP | -0.0139 |
| RRIRLRPPRLPRPRPRPYGGPRP | -0.0286 |
| RRIRTRPPRLPRPRPRPHKTPRP | -0.035 |
| RRIRQRPPRLPRPRPRPGKDPRP | -0.115 |
| RRIRKRPPRLPRPRPRPQLNPRP | 0.0489 |
| RRIRVRPPRLPRPRPRPFCNPRP | 0.0823 |
| RRIRTRPPRLPRPRPRPQECPRP | -0.0262 |
| RRIRNRPPRLPRPRPRPESLPRP | 0.0505 |
| RRIRIRPPRLPRPRPRPKQIPRP | -0.205 |
| RRIRDRPPRLPRPRPRPRRCPRP | 0.142 |
| RRIRNRPPRLPRPRPRPNFMPRP | -0.269 |
| RRIRARPPRLPRPRPRPNHEPRP | 0.021 |
| RRIRCRPPRLPRPRPRPLTMPRP | -0.262 |
| RRIRDRPPRLPRPRPRPHCKPRP | 0.0223 |
| RRIRCRPPRLPRPRPRPFTIPRP | -0.0284 |
| RRIRIRPPRLPRPRPRPYDEPRP | -0.338 |
| RRIRERPPRLPRPRPRPPCQPRP | 0.0382 |
| RRIRYRPPRLPRPRPRPALQPRP | -0.1 |

| Sequence | shrunken log2 fold change |
| --- | --- |
| RRIRVRPPRLPRPRPRPPKDPRP | 0.219 |
| RRIRGRPPRLPRPRPRPYSEPRP | -0.093 |
| RRIRNRPPRLPRPRPRPSIGPRP | -0.109 |
| RRIRRRPPRLPRPRPRPWQYPRP | 0.0419 |
| RRIRWRPPRLPRPRPRPNRMPRP | 0.126 |
| RRIRERPPRLPRPRPRPGHQPRP | -0.236 |
| RRIRHRPPRLPRPRPRPSFPPRP | -0.207 |
| RRIRARPPRLPRPRPRPEETPRP | -0.03 |
| RRIRNRPPRLPRPRPRPVMAPRP | 0.156 |
| RRIRSRPPRLPRPRPRPWQCPRP | -0.19 |
| RRIRQRPPRLPRPRPRPKSCPRP | 0.000945 |
| RRIRERPPRLPRPRPRPIDTPRP | -0.113 |
| RRIRFRPPRLPRPRPRPGRWPRP | 0.653 |
| RRIRARPPRLPRPRPRPIRIPRP | 0.0541 |
| RRIRTRPPRLPRPRPRPVSCPRP | -0.206 |
| RRIRVRPPRLPRPRPRPGFVPRP | 0.0922 |
| RRIRQRPPRLPRPRPRPIEVPRP | 0.0112 |
| RRIRQRPPRLPRPRPRPRRHPRP | -0.0734 |
| RRIRSRPPRLPRPRPRPSGDPRP | 0.118 |
| RRIRIRPPRLPRPRPRPILVPRP | 0.0273 |
| RRIRTRPPRLPRPRPRPWHYPRP | -0.268 |
| RRIRERPPRLPRPRPRPKVCPRP | -0.0496 |
